Assay results from patent US20100104555A1.

How the values were obtained:
Test in all cases: cell-based or functional assay
[1] = molecular target: E1E2 Env of HCV isolate UKN2B1.1 (genotype 2b) on HCVpp (hepatitis C virus genotype 2b, isolate UKN2B1.1)
[2] = molecular target: E1E2 Env of HCV isolate UKN5.15.7 (genotype 5) on HCVpp (hepatitis C virus genotype 5, isolate UKN5.15.7)
[3] = molecular target: E1E2 Env of HCV isolate J6 (genotype 2a) on HCVpp (hepatitis C virus genotype 2a, isolate J6) (UniProt P26660)
E1E2 Env of HCV isolate J6 (genotype 2a) on HCVpp (hepatitis C virus genotype 2a, isolate J6), sequence (P26660 192-750 limits assumed): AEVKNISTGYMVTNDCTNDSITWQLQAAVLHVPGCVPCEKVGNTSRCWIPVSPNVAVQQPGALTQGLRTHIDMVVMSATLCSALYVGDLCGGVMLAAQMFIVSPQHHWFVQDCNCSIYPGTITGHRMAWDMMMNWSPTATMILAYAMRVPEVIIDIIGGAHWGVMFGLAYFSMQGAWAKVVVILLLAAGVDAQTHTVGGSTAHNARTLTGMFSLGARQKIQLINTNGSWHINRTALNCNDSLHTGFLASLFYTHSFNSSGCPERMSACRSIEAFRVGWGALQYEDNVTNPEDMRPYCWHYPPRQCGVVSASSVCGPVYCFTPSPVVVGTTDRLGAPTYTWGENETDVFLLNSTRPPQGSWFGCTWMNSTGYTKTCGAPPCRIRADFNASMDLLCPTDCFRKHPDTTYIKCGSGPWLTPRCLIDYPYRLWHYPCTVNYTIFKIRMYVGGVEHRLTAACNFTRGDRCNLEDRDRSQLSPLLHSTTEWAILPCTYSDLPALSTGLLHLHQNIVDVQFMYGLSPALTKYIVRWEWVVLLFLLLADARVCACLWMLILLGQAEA

[4] = molecular target: VSV (control pseudotype virus)
[5] = molecular target: E1E2 Env of HCV isolate UKN1B12.16 (genotype 1b) on HCVpp (hepatitis C virus genotype 1b, isolate UKN1B12.16)
[6] = molecular target: E1E2 Env of HCV isolate OH8 (genotype 1b) on HCVpp (hepatitis C virus genotype 1b, isolate OH8)
[7] = molecular target: E1E2 Env of HCV isolate UKN4.21.16 (genotype 4) on HCVpp (hepatitis C virus genotype 4, isolate UKN4.21.16)
[8] = molecular target: E1E2 Env of HCV isolate UKN2A1.2 (genotype 2a) on HCVpp (hepatitis C virus genotype 2a, isolate UKN2A1.2)
[9] = molecular target: E1E2 Env of HCV isolate H (genotype 1a) on HCVpp (hepatitis C virus genotype 1a, isolate H)

MAb AR3B (antibody), sequence (VH): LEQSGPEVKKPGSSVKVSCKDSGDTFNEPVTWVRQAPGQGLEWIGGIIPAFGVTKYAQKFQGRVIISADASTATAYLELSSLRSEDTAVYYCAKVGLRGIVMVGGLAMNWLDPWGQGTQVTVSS
MAb AR3B (antibody), sequence (VL): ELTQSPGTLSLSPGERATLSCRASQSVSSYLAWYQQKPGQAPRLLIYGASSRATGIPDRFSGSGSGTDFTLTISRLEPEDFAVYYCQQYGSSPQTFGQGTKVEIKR
MAb AR3C (antibody), sequence (VH): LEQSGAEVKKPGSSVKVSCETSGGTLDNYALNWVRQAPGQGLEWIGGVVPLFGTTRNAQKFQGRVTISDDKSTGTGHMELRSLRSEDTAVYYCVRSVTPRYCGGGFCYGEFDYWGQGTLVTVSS
MAb AR3C (antibody), sequence (VL): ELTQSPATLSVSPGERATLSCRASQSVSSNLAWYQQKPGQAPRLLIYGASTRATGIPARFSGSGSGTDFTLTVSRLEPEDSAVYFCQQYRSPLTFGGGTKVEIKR
MAb AR2A (antibody), sequence (VH): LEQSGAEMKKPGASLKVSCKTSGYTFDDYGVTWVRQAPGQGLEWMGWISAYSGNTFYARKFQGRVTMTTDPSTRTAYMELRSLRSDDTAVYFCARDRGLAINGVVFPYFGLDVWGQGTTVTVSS
MAb AR2A (antibody), sequence (VL): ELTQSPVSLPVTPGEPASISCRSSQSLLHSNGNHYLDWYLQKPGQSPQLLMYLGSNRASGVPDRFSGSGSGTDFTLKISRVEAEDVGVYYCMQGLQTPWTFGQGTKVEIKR
MAb AR1B (antibody), sequence (VH): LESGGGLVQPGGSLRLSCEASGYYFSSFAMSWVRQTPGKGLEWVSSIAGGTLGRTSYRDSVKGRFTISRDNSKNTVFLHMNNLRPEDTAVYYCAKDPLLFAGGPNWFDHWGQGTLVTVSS
MAb AR1B (antibody), sequence (VL): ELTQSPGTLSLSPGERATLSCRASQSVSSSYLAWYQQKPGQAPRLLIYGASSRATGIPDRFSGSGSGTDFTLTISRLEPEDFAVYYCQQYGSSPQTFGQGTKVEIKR

Substance: MAb AR1B (antibody)
- Neutralizing activity (IC50), HCVpp [1]: > 50 µg/mL
- Neutralizing activity (IC50), HCVpp [2]: > 50 µg/mL
- Neutralizing activity (IC50), HCVpp [3]: > 50 µg/mL
- Neutralizing activity (IC50), control pseudotype [4]: > 50 µg/mL
- Neutralizing activity (IC50), HCVpp [5]: > 50 µg/mL
- Neutralizing activity (IC50), HCVpp [6]: > 50 µg/mL
- Neutralizing activity (IC50), HCVpp [7]: > 50 µg/mL
- Neutralizing activity (IC50), HCVpp [8]: > 50 µg/mL

Substance: MAb AR3C (antibody)
- Neutralizing activity (IC50), HCVpp [1]: 10 µg/mL
- Neutralizing activity (IC50), HCVpp [2]: 1 µg/mL
- Neutralizing activity (IC50), HCVpp [3]: 10 µg/mL
- Neutralizing activity (IC50), control pseudotype [4]: > 50 µg/mL
- Neutralizing activity (IC50), HCVpp [5]: 1 µg/mL
- Neutralizing activity (IC50), HCVpp [6]: 5 µg/mL
- Neutralizing activity (IC50), HCVpp [7]: 1 µg/mL
- Neutralizing activity (IC50), HCVpp [9]: 1 µg/mL
- Neutralizing activity (IC50), HCVpp [8]: 10 µg/mL

Substance: MAb AR3B (antibody)
- Neutralizing activity (IC50), HCVpp [1]: 10 µg/mL
- Neutralizing activity (IC50), HCVpp [2]: 1 µg/mL
- Neutralizing activity (IC50), HCVpp [3]: 10 µg/mL
- Neutralizing activity (IC50), control pseudotype [4]: > 50 µg/mL
- Neutralizing activity (IC50), HCVpp [5]: 1 µg/mL
- Neutralizing activity (IC50), HCVpp [6]: 5 µg/mL
- Neutralizing activity (IC50), HCVpp [7]: 1 µg/mL
- Neutralizing activity (IC50), HCVpp [9]: 1 µg/mL
- Neutralizing activity (IC50), HCVpp [8]: 5 µg/mL

Substance: MAb AR1A (antibody)
- Neutralizing activity (IC50), HCVpp [1]: > 50 µg/mL
- Neutralizing activity (IC50), HCVpp [2]: > 50 µg/mL
- Neutralizing activity (IC50), HCVpp [3]: > 50 µg/mL
- Neutralizing activity (IC50), control pseudotype [4]: > 50 µg/mL
- Neutralizing activity (IC50), HCVpp [5]: > 50 µg/mL
- Neutralizing activity (IC50), HCVpp [6]: > 50 µg/mL
- Neutralizing activity (IC50), HCVpp [7]: > 50 µg/mL
- Neutralizing activity (IC50), HCVpp [8]: > 50 µg/mL

Substance: MAb AR3D (antibody)
- Neutralizing activity (IC50), HCVpp [1]: 25 µg/mL
- Neutralizing activity (IC50), HCVpp [2]: 10 µg/mL
- Neutralizing activity (IC50), HCVpp [3]: 50 µg/mL
- Neutralizing activity (IC50), control pseudotype [4]: > 50 µg/mL
- Neutralizing activity (IC50), HCVpp [5]: 1 µg/mL
- Neutralizing activity (IC50), HCVpp [6]: 5 µg/mL
- Neutralizing activity (IC50), HCVpp [7]: 1 µg/mL
- Neutralizing activity (IC50), HCVpp [9]: 1 µg/mL
- Neutralizing activity (IC50), HCVpp [8]: 25 µg/mL

Substance: MAb AR2A (antibody)
- Neutralizing activity (IC50), HCVpp [1]: 10 µg/mL
- Neutralizing activity (IC50), HCVpp [2]: 10 µg/mL
- Neutralizing activity (IC50), HCVpp [3]: > 50 µg/mL
- Neutralizing activity (IC50), control pseudotype [4]: > 50 µg/mL
- Neutralizing activity (IC50), HCVpp [5]: > 50 µg/mL
- Neutralizing activity (IC50), HCVpp [6]: > 50 µg/mL
- Neutralizing activity (IC50), HCVpp [7]: 1 µg/mL
- Neutralizing activity (IC50), HCVpp [9]: 5 µg/mL
- Neutralizing activity (IC50), HCVpp [8]: 5 µg/mL
